The target of one experiment is T1, hiR2-FL-D515E-T7 (human, UniProt Q6PJF5 1-856).
T1 sequence: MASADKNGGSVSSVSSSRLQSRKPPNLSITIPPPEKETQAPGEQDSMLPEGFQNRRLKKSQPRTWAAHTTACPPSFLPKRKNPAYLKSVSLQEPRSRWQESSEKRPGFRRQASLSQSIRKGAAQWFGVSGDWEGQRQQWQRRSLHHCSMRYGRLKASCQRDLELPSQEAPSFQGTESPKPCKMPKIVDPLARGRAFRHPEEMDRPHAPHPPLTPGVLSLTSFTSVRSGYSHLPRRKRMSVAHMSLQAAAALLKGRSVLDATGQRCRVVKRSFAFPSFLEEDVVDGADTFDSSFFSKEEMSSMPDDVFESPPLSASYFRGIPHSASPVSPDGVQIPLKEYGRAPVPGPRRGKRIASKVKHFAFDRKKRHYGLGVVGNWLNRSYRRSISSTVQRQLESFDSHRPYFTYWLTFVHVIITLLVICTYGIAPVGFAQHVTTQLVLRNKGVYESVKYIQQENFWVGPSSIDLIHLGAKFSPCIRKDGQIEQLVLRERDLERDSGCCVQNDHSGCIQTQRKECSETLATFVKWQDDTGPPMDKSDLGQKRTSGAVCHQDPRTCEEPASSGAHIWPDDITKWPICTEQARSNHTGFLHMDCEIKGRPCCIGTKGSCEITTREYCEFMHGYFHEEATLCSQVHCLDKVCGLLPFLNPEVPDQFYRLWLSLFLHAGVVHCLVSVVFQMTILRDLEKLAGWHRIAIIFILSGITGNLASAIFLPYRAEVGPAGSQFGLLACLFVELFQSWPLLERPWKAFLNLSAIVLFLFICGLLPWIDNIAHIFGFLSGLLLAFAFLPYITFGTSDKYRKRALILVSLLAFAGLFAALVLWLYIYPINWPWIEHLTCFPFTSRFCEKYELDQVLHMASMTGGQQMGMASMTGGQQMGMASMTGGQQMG
The experiment in a line: FACS, MEF-DKO cells, 3 µg/ml. (A flow cytometer gives signals particle by particle.)

The next experiment addresses T2, hiR2-FL-D538L-T7 (human, UniProt Q6PJF5 1-856).
T2 sequence: T1 sequence with E515D, D538L
Kind of experiment: FACS, MEF-DKO cells, 3 µg/ml.

Residue numbers refer to the chain shown, from its start.

B1: antibody 48 (antibody, V domains shown)
VH: QVQLQQSGTELVRPGTSVKVSCKASGYAFTNYLIEWVKQRPGQGLEWIGVINPGSGFTKYNEKFKGKATLTADKSSSTVYMHLSSLTSEDSAVYFCARGLYRAMDYWGQGTSVTVSS
VL: DIQMTQSPASQSASLGESVTITCLASQTIATWLAWYQQKPGKSPQLLIYGATTLADGVPSRFSGGGSGTKFSFKISSLQAEDFVSYYCQQLYSTPYTFGGGTKLEIK
notes: mouse IgG, kappa light chain; also called clone #48; purified antibody 48
As to B1, the “loss of binding vs wild type” value in the experiment with hiR2-FL-D515E-T7 and with hiR2-FL-D538L-T7 was not below 30% in each case.

Values taken from patent publication US20240287172A1 (SCIRHOM, published 2024).
